Laboratory results taken from patent US20050153310A1 (PROMEGA, published 2005).

Target: FKBP (FK506 binding protein) (UniProt P62942 2-108)
Test: cell-based or functional assay

FKBP (FK506 binding protein), sequence (P62942 2-108): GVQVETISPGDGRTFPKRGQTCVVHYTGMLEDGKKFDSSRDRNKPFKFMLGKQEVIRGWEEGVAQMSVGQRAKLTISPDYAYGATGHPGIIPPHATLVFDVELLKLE

B1: FRB (rapamycin binding protein) (other)
chain: ILWHEMWHEGLEEASRLYFGERNVKGMFEVLEPLHAMMERGPQTLKETSFNQAYGRDLMEAQEWCRKYMKSGNVKDLTQAWDLYYHVFRRISK
For B1, the “fold decrease in relative luminescence of the in vitro translated double fusion FRB-luc2-FKBP with 0.2 uM rapamycin, compared to the control reactions” value was 20 fold, the “luminescent signal of D293 cells transfected with FRB-Luc2-FKBP under the CMV promoter, with rapamycin” value was no more than 2 fold and the “luminescent signal of D293 cells transfected with FRB-Luc2-FKBP under the TK promoter, with rapamycin” value was no more than 5 fold.
